Laboratory results taken from doi:10.1101/2021.08.17.456605.
Blank lines part the entries; values can stand above or below the substance they belong to.

What was measured:
[1] = target: Heimdallarchaeota AB125 Vps22 (HeimAB125_14050) (Heimdallarchaeota AB125); assay: SEC-MALS
[2] = target: Heimdallarchaeota AB125 Vps22 (HeimAB125_14050) (Heimdallarchaeota AB125); assay: cross-linking
[3] = target: Odinarchaeota LCB_4 Vps23(TSG101) (Odinarchaeota archaeon LCB_4); assay: SEC-MALS

- stoichiometry N [1]: 2
- stoichiometry N [2]: 2
Substance: Heimdallarchaeota AB125 Vps22 (HeimAB125_14050) (natural protein)

- stoichiometry N [3]: 2
Substance: Odinarchaeota LCB_4 Vps23(TSG101) (natural protein)

- stoichiometry N (Vps28 per Vps23 dimer) [3]: 1
Substance: Odinarchaeota LCB_4 Vps28 (natural protein)
